Experiments:
Assay in all cases: Retrogenix cell microarray, fixed HEK293 cells
[1] = biological target: T1, full-length human UNC5A on fixed HEK293 cells (Retrogenix panel) (human, UniProt Q6ZN44 26-842)
T1 construct: whole, on cells
T1 sequence (looked up): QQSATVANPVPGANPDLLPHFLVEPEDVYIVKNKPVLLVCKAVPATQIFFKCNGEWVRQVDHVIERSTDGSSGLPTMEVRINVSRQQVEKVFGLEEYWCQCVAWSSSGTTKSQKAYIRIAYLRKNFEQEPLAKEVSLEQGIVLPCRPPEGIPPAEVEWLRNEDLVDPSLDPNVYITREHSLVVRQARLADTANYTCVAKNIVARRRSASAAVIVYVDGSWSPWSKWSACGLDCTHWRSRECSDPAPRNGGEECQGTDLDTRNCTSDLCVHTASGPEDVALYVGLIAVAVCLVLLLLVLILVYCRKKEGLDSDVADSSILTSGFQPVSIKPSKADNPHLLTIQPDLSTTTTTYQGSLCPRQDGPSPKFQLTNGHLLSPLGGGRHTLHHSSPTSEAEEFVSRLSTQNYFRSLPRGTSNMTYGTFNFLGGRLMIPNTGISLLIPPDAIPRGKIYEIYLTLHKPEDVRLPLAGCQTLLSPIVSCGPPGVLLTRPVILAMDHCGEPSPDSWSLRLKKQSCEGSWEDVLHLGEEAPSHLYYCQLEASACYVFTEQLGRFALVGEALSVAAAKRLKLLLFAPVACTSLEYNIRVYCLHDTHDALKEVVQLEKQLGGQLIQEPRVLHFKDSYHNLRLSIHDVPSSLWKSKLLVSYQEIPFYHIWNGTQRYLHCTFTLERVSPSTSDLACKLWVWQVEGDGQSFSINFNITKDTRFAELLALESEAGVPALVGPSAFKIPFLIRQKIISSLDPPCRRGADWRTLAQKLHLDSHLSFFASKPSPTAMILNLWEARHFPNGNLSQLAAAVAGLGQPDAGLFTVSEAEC

[2] = biological target: T2, full-length human UNC5B on fixed HEK293 cells (Retrogenix panel) (human, UniProt Q8IZJ1 27-945)
T2 construct: whole, on cells

[3] = biological target: T3, full-length human UNC5D on fixed HEK293 cells (Retrogenix panel) (human, UniProt Q6UXZ4 33-953)
T3 construct: whole, on cells
T3 sequence (looked up): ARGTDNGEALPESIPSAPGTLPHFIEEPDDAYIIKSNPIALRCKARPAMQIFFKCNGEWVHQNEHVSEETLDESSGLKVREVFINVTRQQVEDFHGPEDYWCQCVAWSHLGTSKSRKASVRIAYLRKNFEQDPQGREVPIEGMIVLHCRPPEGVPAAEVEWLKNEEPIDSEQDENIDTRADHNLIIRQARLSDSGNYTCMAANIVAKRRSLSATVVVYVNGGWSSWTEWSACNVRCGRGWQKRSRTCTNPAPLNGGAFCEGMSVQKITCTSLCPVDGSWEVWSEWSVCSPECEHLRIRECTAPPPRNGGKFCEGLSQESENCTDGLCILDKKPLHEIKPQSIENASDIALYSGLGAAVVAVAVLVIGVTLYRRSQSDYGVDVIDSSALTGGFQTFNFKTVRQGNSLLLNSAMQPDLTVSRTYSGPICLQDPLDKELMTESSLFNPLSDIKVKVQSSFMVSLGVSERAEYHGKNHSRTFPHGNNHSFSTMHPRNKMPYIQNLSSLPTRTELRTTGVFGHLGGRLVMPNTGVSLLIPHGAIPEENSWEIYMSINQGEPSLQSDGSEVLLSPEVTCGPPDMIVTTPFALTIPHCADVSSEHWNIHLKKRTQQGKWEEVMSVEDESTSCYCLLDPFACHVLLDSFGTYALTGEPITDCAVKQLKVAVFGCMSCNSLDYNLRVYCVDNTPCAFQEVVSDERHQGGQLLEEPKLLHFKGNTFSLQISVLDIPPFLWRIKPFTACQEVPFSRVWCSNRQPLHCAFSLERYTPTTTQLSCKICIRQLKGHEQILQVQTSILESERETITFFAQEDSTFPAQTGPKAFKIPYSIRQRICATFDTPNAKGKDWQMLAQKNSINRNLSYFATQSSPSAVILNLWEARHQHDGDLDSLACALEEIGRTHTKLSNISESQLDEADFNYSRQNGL

[4] = biological target: T4, full-length human DCC on fixed HEK293 cells (Retrogenix panel) (human, UniProt P43146 26-1447)
T4 construct: whole, on cells

[5] = biological target: T5, full-length human DSCAM on fixed HEK293 cells (Retrogenix panel) (human, UniProt O60469 18-2012)
T5 construct: whole, on cells
T5 sequence (O60469 18-2012): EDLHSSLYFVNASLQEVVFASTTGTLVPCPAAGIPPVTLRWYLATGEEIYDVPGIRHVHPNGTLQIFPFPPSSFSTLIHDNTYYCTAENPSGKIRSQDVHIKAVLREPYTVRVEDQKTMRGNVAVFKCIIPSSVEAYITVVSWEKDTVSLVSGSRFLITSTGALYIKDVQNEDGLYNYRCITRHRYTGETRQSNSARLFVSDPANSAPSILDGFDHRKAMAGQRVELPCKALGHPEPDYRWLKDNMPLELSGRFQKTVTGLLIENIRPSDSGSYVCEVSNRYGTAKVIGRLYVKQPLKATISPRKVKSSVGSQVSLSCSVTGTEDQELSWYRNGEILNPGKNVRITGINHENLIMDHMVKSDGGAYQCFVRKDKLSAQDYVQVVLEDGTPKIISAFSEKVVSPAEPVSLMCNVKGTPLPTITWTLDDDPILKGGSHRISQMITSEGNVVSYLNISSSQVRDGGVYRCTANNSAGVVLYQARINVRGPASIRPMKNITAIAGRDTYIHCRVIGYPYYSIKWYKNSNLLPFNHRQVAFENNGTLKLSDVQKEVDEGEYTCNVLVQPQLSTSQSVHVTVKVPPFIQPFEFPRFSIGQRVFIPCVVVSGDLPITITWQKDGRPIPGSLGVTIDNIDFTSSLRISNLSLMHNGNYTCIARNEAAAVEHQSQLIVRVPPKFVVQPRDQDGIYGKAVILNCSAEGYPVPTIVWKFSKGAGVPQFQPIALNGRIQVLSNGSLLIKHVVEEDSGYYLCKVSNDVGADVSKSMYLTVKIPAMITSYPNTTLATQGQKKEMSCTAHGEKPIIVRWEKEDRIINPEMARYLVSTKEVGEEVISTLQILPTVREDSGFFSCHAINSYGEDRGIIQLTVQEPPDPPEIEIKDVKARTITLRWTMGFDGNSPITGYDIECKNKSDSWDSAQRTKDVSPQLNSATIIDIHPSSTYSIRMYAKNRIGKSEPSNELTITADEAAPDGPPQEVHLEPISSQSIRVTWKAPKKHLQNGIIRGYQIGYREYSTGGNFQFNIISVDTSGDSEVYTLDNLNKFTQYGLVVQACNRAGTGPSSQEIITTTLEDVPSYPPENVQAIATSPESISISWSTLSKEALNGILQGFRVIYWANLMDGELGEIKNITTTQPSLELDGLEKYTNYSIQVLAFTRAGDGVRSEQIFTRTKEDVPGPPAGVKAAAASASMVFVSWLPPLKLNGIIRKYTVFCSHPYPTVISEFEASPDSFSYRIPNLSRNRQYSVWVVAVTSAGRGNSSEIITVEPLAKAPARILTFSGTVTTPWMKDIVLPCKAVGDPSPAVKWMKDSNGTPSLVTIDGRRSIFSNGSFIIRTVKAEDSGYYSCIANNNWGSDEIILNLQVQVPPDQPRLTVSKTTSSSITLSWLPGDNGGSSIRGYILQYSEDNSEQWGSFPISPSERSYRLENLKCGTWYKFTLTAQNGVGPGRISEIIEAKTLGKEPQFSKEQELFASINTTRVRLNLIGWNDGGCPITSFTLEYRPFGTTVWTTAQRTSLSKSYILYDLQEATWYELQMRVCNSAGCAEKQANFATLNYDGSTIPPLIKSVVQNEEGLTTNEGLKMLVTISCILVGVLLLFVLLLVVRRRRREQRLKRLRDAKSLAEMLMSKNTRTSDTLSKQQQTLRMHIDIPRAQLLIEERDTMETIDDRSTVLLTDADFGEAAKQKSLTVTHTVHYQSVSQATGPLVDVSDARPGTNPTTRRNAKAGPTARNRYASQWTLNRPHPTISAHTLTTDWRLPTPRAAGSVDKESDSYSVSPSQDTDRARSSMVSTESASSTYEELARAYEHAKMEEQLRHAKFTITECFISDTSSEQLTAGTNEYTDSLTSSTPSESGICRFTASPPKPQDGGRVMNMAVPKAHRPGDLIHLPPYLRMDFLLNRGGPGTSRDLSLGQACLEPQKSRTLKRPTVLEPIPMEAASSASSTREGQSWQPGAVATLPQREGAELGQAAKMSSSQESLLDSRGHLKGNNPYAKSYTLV

T4 sequence (P43146 26-1447): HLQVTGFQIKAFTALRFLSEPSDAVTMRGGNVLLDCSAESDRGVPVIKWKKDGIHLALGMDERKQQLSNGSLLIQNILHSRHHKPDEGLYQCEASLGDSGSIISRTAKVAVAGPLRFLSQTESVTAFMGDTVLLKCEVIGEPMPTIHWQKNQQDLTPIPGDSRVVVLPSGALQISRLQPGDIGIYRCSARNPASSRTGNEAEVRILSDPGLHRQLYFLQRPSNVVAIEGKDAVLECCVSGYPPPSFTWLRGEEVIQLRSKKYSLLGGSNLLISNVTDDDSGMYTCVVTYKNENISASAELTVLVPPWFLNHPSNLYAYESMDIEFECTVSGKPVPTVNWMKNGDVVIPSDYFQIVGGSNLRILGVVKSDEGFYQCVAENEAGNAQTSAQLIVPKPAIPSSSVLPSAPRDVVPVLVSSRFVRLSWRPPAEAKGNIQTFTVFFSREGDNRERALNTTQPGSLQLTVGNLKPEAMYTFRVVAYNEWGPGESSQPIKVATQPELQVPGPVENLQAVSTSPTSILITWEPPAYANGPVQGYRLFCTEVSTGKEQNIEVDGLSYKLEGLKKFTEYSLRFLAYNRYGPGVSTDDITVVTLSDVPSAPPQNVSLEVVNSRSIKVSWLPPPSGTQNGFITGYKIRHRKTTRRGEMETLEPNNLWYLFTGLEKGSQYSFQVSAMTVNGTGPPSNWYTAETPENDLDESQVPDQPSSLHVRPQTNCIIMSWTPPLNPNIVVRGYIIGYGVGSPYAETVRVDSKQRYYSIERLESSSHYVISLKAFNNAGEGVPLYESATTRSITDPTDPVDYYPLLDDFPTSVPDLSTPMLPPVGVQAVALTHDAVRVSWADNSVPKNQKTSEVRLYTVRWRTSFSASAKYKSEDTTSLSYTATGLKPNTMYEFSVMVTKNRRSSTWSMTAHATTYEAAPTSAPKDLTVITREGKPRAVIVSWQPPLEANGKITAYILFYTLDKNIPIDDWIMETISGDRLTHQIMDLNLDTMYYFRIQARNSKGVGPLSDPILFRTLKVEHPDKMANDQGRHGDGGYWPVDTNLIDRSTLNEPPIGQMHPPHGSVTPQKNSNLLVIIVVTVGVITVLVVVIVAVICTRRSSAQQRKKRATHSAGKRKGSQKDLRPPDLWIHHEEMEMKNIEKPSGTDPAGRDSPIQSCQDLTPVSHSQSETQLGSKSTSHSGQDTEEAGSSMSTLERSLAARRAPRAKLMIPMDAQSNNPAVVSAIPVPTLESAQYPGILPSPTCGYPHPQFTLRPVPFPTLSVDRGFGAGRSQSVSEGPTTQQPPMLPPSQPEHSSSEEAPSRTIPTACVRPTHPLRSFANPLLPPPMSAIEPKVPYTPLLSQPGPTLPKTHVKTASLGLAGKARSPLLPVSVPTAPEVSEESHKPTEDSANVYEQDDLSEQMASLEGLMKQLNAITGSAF

- binding result [1]: no binding
- binding result [2]: no binding
- binding result [3]: no binding
- binding result [4]: no binding
- binding result [5]: no binding
B1: ATL_0006178 (antibody, IgG1, V domains shown)
VH: QVQLQESGPGLVKPSETLSLTCTVSGGSISSYFWSWIRQPPGKGLEWIGYIHYSGTTNQNPSLKSRVTISVDKSKNQFSLKLSSVTAADTAVYYCARGRGMATLPFDYWGQGTLVTVSS
VL: not shown
notes: Combination variant of ATL_5262 (T82K, Q67 kept, N58Y); also called ATL_6178; ATL6178
